{"source": "patent US20240344138A1", "about": "“TARGETED THERAPIES IN CANCER” (Feng Biosciences, Inc, priority 2021, published 2024)", "molecules": {"B1": {"name": "tislelizumab plus chemotherapy: anti-PD-1 checkpoint inhibitor tislelizumab with pemetrexed and a platinum agent (cisplatin or carboplatin) (antibody, chains of the INN, looked up)", "heavy": "QVQLQESGPGLVKPSETLSLTCTVSGFSLTSYGVHWIRQPPGKGLEWIGVIYADGSTNYNPSLKSRVTISKDTSKNQVSLKLSSVTAADTAVYYCARAYGNYWYIDVWGQGTTVTVSSASTKGPSVFPLAPCSRSTSESTAALGCLVKDYFPEPVTVSWNSGALTSGVHTFPAVLQSSGLYSLSSVVTVPSSSLGTKTYTCNVDHKPSNTKVDKRVESKYGPPCPPCPAPPVAGGPSVFLFPPKPKDTLMISRTPEVTCVVVAVSQEDPEVQFNWYVDGVEVHNAKTKPREEQFNSTYRVVSVLTVVHQDWLNGKEYKCKVSNKGLPSSIEKTISKAKGQPREPQVYTLPPSQEEMTKNQVSLTCLVKGFYPSDIAVEWESNGQPENNYKTTPPVLDSDGSFFLYSKLTVDKSRWQEGNVFSCSVMHEALHNHYTQKSLSLSLG", "light": "DIVMTQSPDSLAVSLGERATINCKSSESVSNDVAWYQQKPGQPPKLLINYAFHRFTGVPDRFSGSGYGTDFTLTISSLQAEDVAVYYCHQAYSSPYTFGQGTKLEIKRTVAAPSVFIFPPSDEQLKSGTASVVCLLNNFYPREAKVQWKVDNALQSGNSQESVTEQDSKDSTYSLSSTLTLSKADYEKHKVYACEVTHQGLSSPVTKSFNRGEC", "modifications": "plus pemetrexed and platinum chemotherapy"}, "B2": {"name": "navicixizumab and chemotherapy: anti-VEGF/anti-DLL4 bispecific antibody navicixizumab with chemotherapy (such as paclitaxel, FOLFOX, FOLFIRI, irinotecan) (antibody, chains of the INN, looked up, V domains shown)", "VH": "QVQLVQSGAEVKKPGASVKISCKASGYSFTAYYIHWVKQAPGQGLEWIGYISNYNRATNYNQKFKGRVTFTTDTSTSTAYMELRSLRSDDTAVYYCARDYDYDVGMDYWGQGTLVTVSS", "VL": "DIVMTQSPDSLAVSLGERATISCRASESVDNYGISFMKWFQQKPGQPPKLLIYAASNQGSGVPDRFSGSGSGTDFTLTISSLQAEDVAVYYCQQSKEVPWTFGGGTKVEIK", "VH2": "QVQLVQSGAEVKKPGASVKVSCKASGYTFTNYWMHWVRQAPGQGLEWMGDINPSNGRTSYKEKFKRRVTLSVDKSSSTAYMELSSLRSEDTAVYFCTIHYDDKYYPLMDYWGQGTLVTVSS", "VL2": "B2 VL", "modifications": "plus chemotherapy"}}, "key": {"[1]": {"tested_on": "MDSC functions", "details": "pre-clinical models; cited from earlier work"}, "[2]": {"tested_on": "non-small cell lung cancer (NSCLC)", "test": "Retrospective ANN analysis of Phase 3 trial of tislelizumab with pemetrexed and a platinum agent", "assay_type": "in vivo, human", "details": "biomarker positive group (IA or IS)", "text": "A retrospective analysis of 100 RNA signatures from a Phase 3 clinical trial of non-small cell lung cancer (NSCLC) with the anti-PD-1 checkpoint inhibitor tislelizumab in combination with the chemotherapeutic agents pemetrexed and a platinum agent (cisplatin or carboplatin) is run using the ANN method. […] After the retrospective ANN analysis, the biomarker positive group (IA or IS) is shown to have a PFS of 15.0 months with the combination therapy of tislelizumab and chemotherapy."}, "[3]": {"tested_on": "non-small cell lung cancer (NSCLC)", "details": "cited from earlier work"}, "[4]": {"tested_on": "advanced solid tumors in colorectal, triple-negative breast cancer, gastric, and ovarian cancers", "test": "Phase 2 open-label basket study of navicixizumab monotherapy or with paclitaxel or irinotecan, retrospective analysis by TME phenotype", "assay_type": "in vivo, human", "details": "combined A and IS groups", "procedure": "A retrospective analysis of a signal-finding Phase 2 clinical trial is conducted. Patient samples from thirty patients in a phase 2, multicenter, open-label basket study of navicixizumab monotherapy or in combination with the chemotherapeutics paclitaxel or irinotecan in patients with advanced solid tumors in colorectal, triple-negative breast cancer, gastric, and ovarian cancers. Patients in the combined A and IS groups that received navicixizumab monotherapy have an ORR greater than 40%. Patients in the combined A and IS groups that receive navicixizumab and chemotherapy have an ORR greater than 50%."}, "[5]": {"tested_on": "colorectal cancer patients", "test": "Clinical trial of navicixizumab and chemotherapy in colorectal cancer, outcome by TME phenotype", "assay_type": "in vivo, human", "procedure": "A clinical trial is run to show benefit of anti-angiogenesis therapy in CRC by identifying patients based on their stromal phenotypes. RNA gene signatures are analyzed from biopsy samples prior to treatment with navicixizumab and chemotherapy (such as paclitaxel, FOLFOX, FOLFIRI, etc.). The stromal phenotypes are correlated with ORR, PFS, and OS. The analysis includes 40 colorectal cancer patients with treated with navicizumab and chemotherapy in the first-line setting."}}, "data": [{"molecule": "CCCc1nn(C)c2c(=O)[nH]c(-c3cc(S(=O)(=O)N4CCN(C)CC4)ccc3OCC)nc12", "note": "[sildenafil]", "values": [{"measurement": "effect on MDSC functions", "setting": "[1]", "result": "significantly inhibited the MDSC functions"}]}, {"molecule": "B1", "values": [{"measurement": "PFS", "setting": "[2]", "result": 15.0, "unit": "months"}, {"measurement": "hazard ratio (PFS)", "setting": "[3]; tislelizumab plus chemotherapy versus chemotherapy alone", "result": 0.645}, {"measurement": "median PFS", "setting": "[3]; without stratification into stromal phenotypes", "result": 9.7, "unit": "mo"}]}, {"molecule": "B2", "values": [{"measurement": "ORR", "setting": "[4]", "result": "greater than 50%"}, {"measurement": "ORR (%)", "setting": "[5]; A (n = 10)", "result": 90, "unit": "%"}, {"measurement": "OS (months)", "setting": "[5]; A (n = 10)", "result": 26, "unit": "months"}, {"measurement": "PFS (months)", "setting": "[5]; A (n = 10)", "result": 15, "unit": "months"}, {"measurement": "ORR (%)", "setting": "[5]; IA (n = 10)", "result": 30, "unit": "%"}, {"measurement": "OS (months)", "setting": "[5]; IA (n = 10)", "result": 15, "unit": "months"}, {"measurement": "PFS (months)", "setting": "[5]; IA (n = 10)", "result": 10, "unit": "months"}, {"measurement": "ORR (%)", "setting": "[5]; ID (n = 10)", "result": 45, "unit": "%"}, {"measurement": "OS (months)", "setting": "[5]; ID (n = 10)", "result": 20, "unit": "months"}, {"measurement": "PFS (months)", "setting": "[5]; ID (n = 10)", "result": 13, "unit": "months"}, {"measurement": "ORR (%)", "setting": "[5]; IS (n = 10)", "result": 80, "unit": "%"}, {"measurement": "OS (months)", "setting": "[5]; IS (n = 10)", "result": 25, "unit": "months"}, {"measurement": "PFS (months)", "setting": "[5]; IS (n = 10)", "result": 16, "unit": "months"}]}]}
